The target of one experiment is T1, GPNMB (Homo sapiens, UniProt Q14956).
T1 construct: made in house; host or cells: HEK 293
T1 sequence (Q14956 23-492): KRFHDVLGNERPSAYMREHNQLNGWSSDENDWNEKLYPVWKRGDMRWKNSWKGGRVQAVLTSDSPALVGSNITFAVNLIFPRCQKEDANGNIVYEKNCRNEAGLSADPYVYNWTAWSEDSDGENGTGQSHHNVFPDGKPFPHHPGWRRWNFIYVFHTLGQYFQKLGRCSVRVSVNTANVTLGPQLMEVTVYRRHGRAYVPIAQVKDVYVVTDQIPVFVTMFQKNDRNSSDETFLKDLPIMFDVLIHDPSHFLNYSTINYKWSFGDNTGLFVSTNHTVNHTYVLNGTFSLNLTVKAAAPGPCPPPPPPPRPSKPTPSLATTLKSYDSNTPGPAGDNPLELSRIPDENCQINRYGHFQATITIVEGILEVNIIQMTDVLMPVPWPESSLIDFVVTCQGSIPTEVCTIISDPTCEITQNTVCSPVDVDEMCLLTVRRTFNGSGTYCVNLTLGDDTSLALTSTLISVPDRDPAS
In words: Binning of antibodies (Luminex competitive binding). On the procedure: Certain antibodies, described herein were binned in accordance with the protocol described in U.S. Patent Application Publication No. 20030157730. MxhIgG conjugated beads are prepared for coupling to primary antibody. The volume of supernatant needed is calculated using the following formula: (n+10)×50 μL (where n=total number of samples on plate). Where the concentration is known, 0.5 μg/mL is used. Bead stock is gently vortexed, then diluted in supernatant to a concentration of 2500 of each bead per well or 0.5×10^5/mL and incubated on a shaker in the dark at RT overnight, or 2 hours if at a known concentration of […]. Following aspiration, 50 μL of each bead is added to each well of filter plate, then washed once by adding 100 μL/well wash buffer and aspirating. Antigen and controls are added to filter plate 50 μL/well then covered and allowed to incubate in the dark for 1 hour on shaker. Following a wash step, a secondary unknown antibody is added at 50 μL/well using the same dilution (or concentration if known) as is used for the primary antibody. The plates are then incubated in the dark for 2 hours at RT on shaker followed by a wash step. Next, 50 μL/well biotinylated mxhIgG diluted 1:500 is added and allowed to incubate in the dark for 1 hour on shaker at RT. Following a wash step, 50 μL/well Streptavidin-PE is added at 1:1000 and allowed to incubate in the dark for 15 minutes on shaker at RT.

For the next experiment, the system named is UACC-62. In words: Anti GPNMB antibody mediated indirect cell killing (saporin secondary antibody-toxin conjugate, colony count). Conditions: 5-FU at 600 uM, positive reagent control. The experiment is classed as cell-based, human. On the procedure: UACC-62, a GPNMB antigen expressing cell line, and TK10, a non-expressing cell line were plated onto flat bottom 96-well tissue culture plates (Becton Dickinson, Franklin Lakes, N.J., USA) at a density of 3000 cells per well. Once the cells reached ˜25% confluency, 100 ng/well of secondary antibody-toxin conjugate (goat anti-human IgG-saporin; Advanced Targeting Systems, San Diego, USA, HUM-ZAP; cat. # IT-22) was added. Anti-GPNMB MAbs 2.10.2, 2.22.1, 1.15.1 or isotype control mAb (pK16.3) were added to each well at a final concentration of 10 or 50 ng/mL. An anti-EGFR monoclonal antibody (MS-269-PABX, NeoMarkers, Fremont, Calif., USA) was used as a positive primary antibody control. Chemotherapy reagent 5-FU at 600 uM was used as a positive reagent control. On day 5, the cells were trypsinized, transferred to 6-well tissue culture plates and incubated at 37° C. Plates were examined daily and between 8-10 days, all plates were Giemsa stained and colonies were counted.

Experiment [1] has as its system SK-MEL-2 melanoma xenografts. In words: Human SK-MEL-2 melanoma xenograft in athymic mice. The experiment is classed as in vivo. On the procedure:
(§1) Test Animals: Five- to 6-week old athymic mice (CD-1 nu/nu females), used for human tumor xenografts, were obtained from Harlan Laboratories (Indianapolis, Ind.). Animals were housed in specific pathogen-free conditions, according to the guidelines of the Association for Assessment and Accreditation of Laboratory Animal Care International (AAALAC International). Test animals were provided pelleted food and water ad libitum and kept in a room with conditioned ventilation (HVAC), temperature (22°±2° C.), relative humidity (55%±15%), and photoperiod (12 hr). All studies were carried out with approved institutional animal care and use protocols.
(§2) Human Melanoma Xenograft Models. The tumor inhibitory activity of the CR011-MMAE immunoconjugate was measured in an anti-tumor xenograft model using athymic mice, according to published methods (see Geran et al., Cancer Chemother. Rep. 3:1-104 (1972)). […] When tumors became established (10-20 days), the animals were pair-matched into groups (n=6 mice/group), and treatment was administered by intravenous injection (tail vein).
(§3) The SK-MEL-2 human melanoma (ATCC #HTB-68) was derived from a metastatic site (skin of thigh) of a person with malignant melanoma, and the SK-MEL-5 human melanoma (ATCC #HTB-70) was derived from a metastatic site (axillary lymph node) of a person with malignant melanoma (see Fogh et al., J. Natl. Cancer Inst. 59: 221-226 (1977)). Both cell lines were obtained from the American Type Culture Collection.
(§4) The effects of treatment were monitored by repetitive tumor measurements across 2 diameters with Vernier calipers; tumor size (in mg) was calculated using a standard formula, (W^2×L)/2, assuming a specific gravity of 1.0. Tumor size and body weights were assessed twice weekly. Mice were examined daily, however, and moribund animals were humanely euthanized if clinical indications of excessive pain or distress were noted (i.e., prostration, hunched posture, paralysis/paresis, distended abdomen, ulcerations, abscesses, seizures, and/or hemorrhages). Animals with tumors exceeding 2,000 mg were removed from the study and euthanized humanely.
No apparent or statistically significant anti-tumor effects were observed. […] In preliminary studies, tumor regression was complete and was not followed by regrowth of the tumor despite lengthy observation periods (up to 200 days).
(In general: Xenograft models place foreign cells or tissue in a host animal.)

Experiment [2] deals with SK-MEL-5 melanoma xenografts. In words: Human SK-MEL-5 melanoma xenograft in athymic mice. The experiment is classed as in vivo. On the procedure:
as §1, §2, §3, §4
Soon after the commencement of treatment with paclitaxel, however, significant tumor growth inhibition was observed (P≦0.039) at day 3 after treatment began, and this anti-tumor effect continued, producing 100% growth inhibition (stasis). The responses of SK-MEL-5-bearing test animals to vinblastine and paclitaxel were short-lived. After cessation of treatment at the maximally tolerated doses, tumors resumed rapid, progressive growth.

The subject of experiment [3] is SK-Mel-2 cells. In words: ADCC assay with human PBMC (DELFIA EuTDA cytotoxicity). The experiment is classed as cell-based. Conditions: human PBMC 30 to 100 fold; 2, 5, 10 μg/200 μl. On the procedure:
We next examined whether the CR0111gG1 mAb could induce ADCC in SK-MEL-2 cells in culture in the presence of human PBMC. Human PBMC were isolated from whole blood using a Ficoll-Plaque. Briefly, in a 50 mL tube, 15 mL of PBS was added to 20 mL of whole blood which was underlayed with 10 mL Ficoll-Plaque and the tube was centrifuged at 2000 RPM. Mononuclear cells were collected from the interface and washed 3 times with PBS. The ADCC assay was carried out in a 96 well plate using a fluorescence assay for cytolysis from Perkin-Elmer (DELFIA EuTDA Cytotoxic assay). The procedure is based on loading target cells with a fluorescence enhancing ligand (BATDA, bis (acetoxymethyl) terpyridine—dicarboxylate). The hydrophic ligand penetrates the membrane quickly. Within the cell the esterbonds are hydrolyzed to form a hydrophilic ligand (TDA, terpyridine—dicarboxylic acid) which can no longer pass through the membrane. After cytolysis the ligand is released and introduced to the Europium solution. The europium and the ligand form a highly fluorescent and stable chelate (EuTDA). Fluorescence intensity are recorded using excitation and emission wavelengths as λex=340 nm and λem=613 nm, respectively.

The subject of experiment [4] is SK-Mel-2 cells. In words: Flow cytometry of CR011 binding to cell surface CG56972/GPNMB. Further details: species or system human. To be noted: SK-MEL-2. On the procedure:
Flow Cytometry: Quantitative analysis of GPNMB expression on the cell surface of cell lines was determined by flow cytometry. […] Cells were fixed in 1% paraformaldehyde/PBS and examined on a Becton Dickinson FACSCalibur flow cytometer. Data analysis was performed with Becton Dickinson Cell Quest software version 3.3 and the geometric mean fluorescence intensity ratio (GMR) was determined for each cell type.
Flow Cytometry: Quantitative analysis of CG56972 expression on the surface of cell lines was determined by flow cytometry (FACS). […] Cells were fixed in 1% paraformaldehyde/PBS and examined on a Becton Dickinson FACSCalibur flow cytometer. Data analysis was performed with Becton Dickinson Cell Quest software version 3.3 and the geometric mean fluorescence intensity ratio (GMR) was determined for each cell type.

Entries after “also recorded” stand apart in the source; their conditions may differ. Where a name gives a salt, the structure may show the parent alone. Where a SMILES comes first, the peptide text is derived from it. [ ]: non-standard residue; d: D form. The star is where a group is joined. Dolaproine = CO[C@@H]([C@@H]1CCCN1)[C@@H](C)C(=O)O; Dil = CC[C@H](C)[C@H](NC)[C@@H](CC(=O)O)OC; X1 = C[C@@H](N*)[C@@H](O)c1ccccc1; NMeV = CN[C@H](C(=O)O)C(C)C

Turning to “1.15: anti-GPNMB antibody 1.15 of the binning tables; line of the lead mAb 1.15 / CR011”, the bin result in the experiment with GPNMB (bin assignment of Table 8) is listed as “VIII”; in the experiment with GPNMB (bin assignment of Table 9, Cut-off = 90) it was “VIII”. The “binning signal (Table 8)” value with GPNMB (paired with 1.1) amounted to 91; with GPNMB (paired with 1.11), 10; in the experiment with GPNMB (paired with 1.12), 15; with GPNMB (paired with 1.13) it was 13; in the experiment with GPNMB (paired with 1.15), 0; with GPNMB (paired with 1.2), 79. The “binning signal (Table 8)” value with GPNMB (paired with 1.3) is given as 71; in the experiment with GPNMB (paired with 1.5), 15; with GPNMB (paired with 1.7) it was 21; in the experiment with GPNMB (paired with 1.8), 8; in the experiment with GPNMB (paired with 1.9) it was 12; in the experiment with GPNMB (paired with BB) it was −19. Also, the “binning signal (Table 8)” value in the experiment with GPNMB (paired with xV5) is 89. Also, the “binning signal (Table 9)” value amounted to 19 with GPNMB (paired with 1.11); 21 with GPNMB (paired with 1.12); 5 with GPNMB (paired with 1.13); 0 in the experiment with GPNMB (paired with 1.15); 90 with GPNMB (paired with 1.2); 51 with GPNMB (paired with 1.3). Also, the “binning signal (Table 9)” value with GPNMB (paired with 1.5) is −9; with GPNMB (paired with 1.7) it was 17; with GPNMB (paired with 1.8) it was 12; with GPNMB (paired with 1.9) it was 19; in the experiment with GPNMB (paired with BB), 59.

Take `O=c1[nH]cc(F)c(=O)[nH]1` [Mab 5-FU, 5-FU]: the killing of cells entry with UACC-62 is “complete killing”.

In the case of `CC[C@H](C)[C@@H]([C@@H](CC(=O)N1CCC[C@H]1[C@H](OC)[C@@H](C)C(=O)N[C@H](C)[C@@H](O)c1ccccc1)OC)N(C)C(=O)[C@@H](NC(=O)[C@@H](NC)C(C)C)C(C)C` [free monomethylauristatin E, monomethylauristatin E, reference compound] (H-[NMeV]V[Dil][Dolaproine]-X1), in experiment [1] (CR011-ONC-1, CR011-vcMMAE 5 mg/kg/treatment i.v. q4d x4, components at doses identical to those in the immunoconjugate), the tumor response entry is reported as “lack of responses; also recorded: lack of tumor growth inhibition”.

With `CC(=O)O[C@H]1C(=O)[C@@]2(C)[C@H]([C@H](OC(=O)c3ccccc3)[C@]3(O)C[C@H](OC(=O)[C@H](O)[C@@H](NC(=O)c4ccccc4)c4ccccc4)C(C)=C1C3(C)C)[C@]1(OC(C)=O)CO[C@@H]1C[C@@H]2O` [paclitaxel, reference compound], the “long-term, tumor-free survivors” value in experiment [2] (paclitaxel group) was “One long-term, tumor-free survivor”.

As to `CC[C@]1(O)C[C@@H]2CN(CCc3c([nH]c4ccccc34)[C@@](C(=O)OC)(c3cc4c(cc3OC)N(C)[C@H]3[C@@](O)(C(=O)OC)[C@H](OC(C)=O)[C@]5(CC)C=CCN6CC[C@]43[C@@H]65)C2)C1` [vinblastine, vinblastine sulfate, reference compound], the anti-tumor effect result in experiment [1] (Study N-386, i.v., CR011-vcMMAE 20, 10, 5 or 2.5 mg/kg q4d x4, vinblastine […] q4d x4) is “very slight, but not significant, anti-tumor effect”; in experiment [2] (CR011-ONC-3, i.v., vs saline and PBS control groups), “noticeable, but not significant tumor growth inhibition”.

As for “CR011 IgG1: CR011 mAb 1.15.1 switched to IgG1 constant region; heavy chain SEQ ID NO: 395”, in the experiment with SK-Mel-2 cells [3], the “ADCC / cytolysis of SK-MEL-2 cells” value is “mediated ADCC; also recorded: caused cytolysis of SK-MEL-2 cells in a dose dependent manner”. Moreover, the “FACS shifts compared to isotype control mAbs” value in the experiment with SK-Mel-2 cells [4] was “comparable FACS shifts”.
